From article doi:10.1101/2020.01.16.909523 (bioRxiv, 2020)

Biological target: PE5mt-PPE4mt heterodimer (His6 tag cleaved) (Mycobacterium tuberculosis, UniProt L7N695 1-102; P9WI43 1-180)
Experiment: SEC-MALS

PE5mt-PPE4mt heterodimer (His6 tag cleaved), sequence (L7N695 whole entry, chain 1 of 2): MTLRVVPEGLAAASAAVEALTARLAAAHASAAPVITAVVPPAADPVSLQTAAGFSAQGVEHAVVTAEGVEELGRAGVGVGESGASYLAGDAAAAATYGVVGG
PE5mt-PPE4mt heterodimer (His6 tag cleaved), sequence (P9WI43 1-180, chain 2 of 2): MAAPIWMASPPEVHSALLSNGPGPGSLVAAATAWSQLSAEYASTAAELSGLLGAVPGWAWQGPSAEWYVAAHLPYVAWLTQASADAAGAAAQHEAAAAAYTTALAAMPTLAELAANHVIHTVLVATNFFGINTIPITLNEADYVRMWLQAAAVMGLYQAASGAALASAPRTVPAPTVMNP

B1: EspG3mm (natural protein)
chain: MESMPNAVELTVENAWFIAEMVGAGTFPWVLAITTPYSDEAQRSAFFARQRDELTQLGLLSSDGVVNPAVAEWIKVVCFPERWLDLRYVGPGTGNGGEDLLRGIVAQSAGIMGKAGKAHPSFNTVVALRNAQLVTFTAMDIDDPRALVPVLGVGLSARPPARFEEFSMPMRVGARADERLRSGESLDEVLDYLGIPVSARPVVQAVFSGPRSYVEIVAGCNRDGEHTTTDVGLSIVDTTAGRVLVSPSRAFDGEWVSTFSAGTPFATAVAIDQLIANLPDGQWFPGQRLSRDFSSQPS
For B1, the “stoichiometry N” value was 1.
